Source: paper PMC6800875, “Codon harmonization reduces amino acid misincorporation in bacterially expressed P. falciparum proteins and improves their immunogenicity” (AMB Express, 2019)

Tests used:
[1] = target: the molecule itself; assay: SDS-PAGE with western blot (band that resists denaturation); purified protein, untreated or incubated at 37 °C or 65 °C for 1, 4 and 24 h, on 4-20% Tris-glycine SDS-PAGE; blots probed with anti-His mAb and mAb 3D11.D4
[2] = target: the molecule itself; assay: SEC; calibrated Superdex G-200 column, PBS pH 7.4, 0.5 mL/min, 4 °C; three standards (66, 29, 12.4 kDa); oligomer size estimated from the elution volume

| Protein | stoichiometry N [1] | stoichiometry N [2] |
| --- | --- | --- |
| N-PfCelTOS (P. falciparum cell-traversal protein for ookinetes and sporozoites, expressed from the native codon sequence) (natural protein, begins at F R G and holds 158 PfCelTOS residues; 174 residues in all with the 16 amino acid linker; natural residue numbering; also called N-protein; source: E. coli B834 (DE3), purified (Ni-NTA, Q-Sepharose); not shown: His6 (within a 16 amino acid linker), N-terminal, kept) FRGNNGHNSSSSLYNGSQFIEQLNNSFTSAFLESQSMNKIGDDLAETISNELVSVLQKNSPTFLESSFDIKSEVKKHAKSMLKELIKVGLPSFENLVAENVKPPKVDPATYGIIVPVLTSLFNKVETAVGAKVSDEIWNYNSPDVSESEESLSDDFFD | ~2 | ~3 |
| CH-PfCelTOS (P. falciparum cell-traversal protein for ookinetes and sporozoites, expressed from the codon harmonized sequence) (natural protein, UniProt Q8I5P1 25-182, looked up, begins at F R G and holds 158 PfCelTOS residues; 174 residues in all with the 16 amino acid linker; natural residue numbering; also called CH-protein; source: E. coli B834 (DE3), purified (Ni-NTA, Q-Sepharose); not shown: His6 (within a 16 amino acid linker), N-terminal, kept) FRGNNGHNSSSSLYNGSQFIEQLNNSFTSAFLESQSMNKIGDDLAETISNELVSVLQKNSPTFLESSFDIKSEVKKHAKSMLKELIKVGLPSFENLVAENVKPPKVDPATYGIIVPVLTSLFNKVETAVGAKVSDEIWNYNSPDVSESEESLSDDFFD | ~2 | ~4 |
| histidine tag-free CH-PfCelTOS (natural protein, two non-native amino acid residues introduced by cloning; the chain is 161 residues long, so one more residue stands before them; begins at F R G and holds 158 PfCelTOS residues; natural residue numbering; Made from the CH-PfCelTOS clone by replacing the His-tag linker; this is surmised; also called His-tag free PfCelTOS; Histidine tag-free PfCelTOS; source: E. coli, purified (Q-Sepharose twice, …)) GTFRGNNGHNSSSSLYNGSQFIEQLNNSFTSAFLESQSMNKIGDDLAETISNELVSVLQKNSPTFLESSFDIKSEVKKHAKSMLKELIKVGLPSFENLVAENVKPPKVDPATYGIIVPVLTSLFNKVETAVGAKVSDEIWNYNSPDVSESEESLSDDFFD | – | ~4 |
